Measured values reported in patent EP4582451A1 (Changchun Genescience Pharmaceutical Co., Ltd., dated 2025).
Numbering of substitutions follows the chain as printed. Read-outs that look alike come from different tables or passages of the source. Each block holds one binder with its values, some of them ahead of it.

Assays:
[1] = biological target: T1, human thyroid-stimulating hormone receptor (TSHR) (human, UniProt P16473 21-764); assay: cell-based or functional assay
[2] = biological target: T1, human thyroid-stimulating hormone …; assay: cell-based or functional assay; remark: listed apart in the source
[3] = biological target: T2, mouse thyroid-stimulating hormone receptor (TSHR) (mouse, UniProt P47750 22-764); assay: flow cytometry (FACS), 293 cells overexpressing mouse TSHR
T2 construct: whole, on cells; Overexpressed on 293 cells; also called mouse TSHR; murine TSHR

[4] = biological target: T3, monkey thyroid-stimulating hormone receptor (TSHR) (monkey, UniProt A0A2K5X226 21-764); assay: flow cytometry (FACS), 293 cells overexpressing monkey TSHR
T3 construct: Overexpressed on 293 cells; also called monkey TSHR

[5] = biological target: T4, hFcRn-Avi (Biosystems, FCM-H82W7) (human (printed as hFcRn), UniProt P55899 24-297; P61769 21-119, biotin on the Avi tag is implied by capture on an SA chip); assay: SPR (Biacore 8K+), hFcRn-Avi captured on SA chip, antibody in flow, pH 6.0, 25 C, steady-state fit
T4 construct: Bought reagent

[6] = biological target: T1, human thyroid-stimulating hormone …; assay: cell-based or functional assay; remark: listed apart in the source
[7] = biological target: T1, human thyroid-stimulating hormone …; assay: flow cytometry (FACS), 293 cells overexpressing human TSHR
[8] = biological target: T1, human thyroid-stimulating hormone …; assay: as above; remark: listed apart in the source
[9] = biological target: T2, mouse thyroid-stimulating hormone …; assay: flow cytometry (FACS), 293 cells overexpressing mouse TSHR; remark: listed apart in the source
[10] = biological target: T3, monkey thyroid-stimulating hormone …; assay: flow cytometry (FACS), 293 cells overexpressing monkey TSHR; remark: listed apart in the source

T3 sequence (A0A2K5X226 entry or part of it limits assumed, form in doubt): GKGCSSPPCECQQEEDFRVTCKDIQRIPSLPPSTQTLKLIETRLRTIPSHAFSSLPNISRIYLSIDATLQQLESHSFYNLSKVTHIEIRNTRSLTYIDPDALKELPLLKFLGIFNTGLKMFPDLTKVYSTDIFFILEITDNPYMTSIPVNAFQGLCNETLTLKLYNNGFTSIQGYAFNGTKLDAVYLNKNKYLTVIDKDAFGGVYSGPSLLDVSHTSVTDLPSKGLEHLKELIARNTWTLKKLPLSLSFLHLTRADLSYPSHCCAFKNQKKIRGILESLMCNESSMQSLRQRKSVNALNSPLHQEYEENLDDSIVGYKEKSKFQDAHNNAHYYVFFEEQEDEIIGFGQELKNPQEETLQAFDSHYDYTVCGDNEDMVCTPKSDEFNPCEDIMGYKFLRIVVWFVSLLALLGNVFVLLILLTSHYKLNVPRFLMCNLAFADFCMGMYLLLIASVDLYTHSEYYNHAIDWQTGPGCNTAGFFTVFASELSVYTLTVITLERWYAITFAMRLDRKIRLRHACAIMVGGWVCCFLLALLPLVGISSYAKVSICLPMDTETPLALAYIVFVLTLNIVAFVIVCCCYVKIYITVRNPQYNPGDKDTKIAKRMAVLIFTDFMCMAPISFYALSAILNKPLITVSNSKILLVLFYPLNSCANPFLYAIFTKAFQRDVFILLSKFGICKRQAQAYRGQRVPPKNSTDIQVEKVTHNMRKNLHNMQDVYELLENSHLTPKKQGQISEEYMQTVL
T1 sequence (P16473 21-764): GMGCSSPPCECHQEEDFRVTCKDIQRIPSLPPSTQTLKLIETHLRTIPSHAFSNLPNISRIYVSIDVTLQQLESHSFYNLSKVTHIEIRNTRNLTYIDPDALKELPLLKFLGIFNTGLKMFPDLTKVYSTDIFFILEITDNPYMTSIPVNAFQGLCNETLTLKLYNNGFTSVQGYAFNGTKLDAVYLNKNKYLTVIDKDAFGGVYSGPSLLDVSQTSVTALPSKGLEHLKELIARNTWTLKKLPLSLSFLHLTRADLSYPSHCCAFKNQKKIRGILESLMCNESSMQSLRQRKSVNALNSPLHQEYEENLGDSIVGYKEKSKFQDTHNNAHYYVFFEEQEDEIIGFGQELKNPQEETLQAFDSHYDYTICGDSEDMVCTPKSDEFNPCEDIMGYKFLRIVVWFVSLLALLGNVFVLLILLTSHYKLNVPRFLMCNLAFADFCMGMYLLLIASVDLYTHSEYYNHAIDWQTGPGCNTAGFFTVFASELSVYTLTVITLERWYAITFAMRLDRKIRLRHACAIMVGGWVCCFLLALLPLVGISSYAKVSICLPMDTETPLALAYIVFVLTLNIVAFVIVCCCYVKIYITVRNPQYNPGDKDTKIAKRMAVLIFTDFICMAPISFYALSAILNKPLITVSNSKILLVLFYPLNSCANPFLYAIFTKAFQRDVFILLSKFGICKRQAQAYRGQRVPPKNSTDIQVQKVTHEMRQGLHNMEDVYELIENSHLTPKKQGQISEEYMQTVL
T2 sequence (P47750 22-764): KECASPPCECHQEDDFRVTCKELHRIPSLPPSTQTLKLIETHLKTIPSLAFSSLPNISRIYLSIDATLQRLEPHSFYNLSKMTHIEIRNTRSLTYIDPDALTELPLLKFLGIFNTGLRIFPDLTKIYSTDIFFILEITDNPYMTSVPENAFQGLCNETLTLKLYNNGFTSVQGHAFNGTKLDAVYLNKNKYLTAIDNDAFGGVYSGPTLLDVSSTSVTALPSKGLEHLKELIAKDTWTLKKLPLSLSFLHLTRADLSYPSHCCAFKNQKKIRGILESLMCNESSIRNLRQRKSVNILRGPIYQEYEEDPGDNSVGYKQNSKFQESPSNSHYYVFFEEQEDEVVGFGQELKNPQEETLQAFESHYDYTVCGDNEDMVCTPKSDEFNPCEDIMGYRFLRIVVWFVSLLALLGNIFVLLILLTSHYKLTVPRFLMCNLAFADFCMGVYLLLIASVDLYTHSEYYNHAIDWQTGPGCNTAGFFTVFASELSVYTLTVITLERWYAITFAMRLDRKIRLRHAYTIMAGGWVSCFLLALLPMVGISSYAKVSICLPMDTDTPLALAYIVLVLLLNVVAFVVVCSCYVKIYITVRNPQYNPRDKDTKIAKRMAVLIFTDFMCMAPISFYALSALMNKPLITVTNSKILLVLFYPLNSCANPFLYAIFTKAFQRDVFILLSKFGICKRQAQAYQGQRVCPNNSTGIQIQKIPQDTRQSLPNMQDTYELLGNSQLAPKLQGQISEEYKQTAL

B1: humanized antibody cAb01-VH2-DA-VL3 (named hAb01_G4P) (antibody, human IgG4 S228P, kappa)
heavy: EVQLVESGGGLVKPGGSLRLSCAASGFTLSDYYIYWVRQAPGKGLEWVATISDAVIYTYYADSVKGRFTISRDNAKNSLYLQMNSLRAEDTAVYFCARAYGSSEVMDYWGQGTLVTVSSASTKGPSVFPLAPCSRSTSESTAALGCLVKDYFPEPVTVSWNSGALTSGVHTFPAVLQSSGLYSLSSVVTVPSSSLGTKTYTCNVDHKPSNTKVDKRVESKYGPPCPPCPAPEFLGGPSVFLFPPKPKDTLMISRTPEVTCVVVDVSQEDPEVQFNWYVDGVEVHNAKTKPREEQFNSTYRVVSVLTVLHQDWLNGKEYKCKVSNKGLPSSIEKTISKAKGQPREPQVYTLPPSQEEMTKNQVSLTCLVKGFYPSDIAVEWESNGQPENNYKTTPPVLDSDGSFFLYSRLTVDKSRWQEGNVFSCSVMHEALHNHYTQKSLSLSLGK
light: EIVLTQSPATLSLSPGERATLSCSASSSVSYMHWYQQKPGQAPKRWIYDTSKLASGVPARFSGSGSGTDYTLTISSLEPEDFAVYYCQQWSSNPWTFGGGTKLEIKRTVAAPSVFIFPPSDEQLKSGTASVVCLLNNFYPREAKVQWKVDNALQSGNSQESVTEQDSKDSTYSLSSTLTLSKADYEKHKVYACEVTHQGLSSPVTKSFNRGEC
IC50(nM), cAMP in 293-human TSHR cells activated by Tab01 (30 nM) [1]: 2.2 nM
IC50(nM), cAMP in 293-human TSHR cells activated by Tab02 (6.5 nM) [1]: 2.2 nM
IC50 (nM), cAMP in 293-human TSHR cells activated by Tab01 [2]: 2.28 nM
IC50 (nM), cAMP in 293-human TSHR cells activated by Tab02 [2]: 2.4 nM
Maximum inhibition rate (%), cAMP in 293-human TSHR cells activated by Tab01 [2]: 102%
Maximum inhibition rate (%), cAMP in 293-human TSHR cells activated by Tab02 [2]: 94.2%
EC50 [3]: 3.22 nM
Maximum binding signal [3]: 123000
EC50 [4]: 2.6 nM
Maximum binding signal [4]: 193000
Kd [5]: 343 nM
Response value (RU) [5]: 35.8 RU

B5: humanized antibody cAb01-VH1-DA-VL3 (antibody, human IgG4 S228P, kappa, V domains shown)
VH: EVQLVESGGGLVKPGGSLRLSCAASGFTLSDYYIYWVRQAPGKGLEWVSTISDAVIYTYYADSVKGRFTISRDNAKNSLYLQMNSLRAEDTAVYYCARAYGSSEVMDYWGQGTLVTVSS
VL: EIVLTQSPATLSLSPGERATLSCSASSSVSYMHWYQQKPGQAPKRWIYDTSKLASGVPARFSGSGSGTDYTLTISSLEPEDFAVYYCQQWSSNPWTFGGGTKLEIKR
notes: Humanized from mAb001
IC50(nM), cAMP in 293-human TSHR cells activated by Tab01 (30 nM) [1]: 0.085 nM
IC50(nM), cAMP in 293-human TSHR cells activated by Tab02 (6.5 nM) [1]: 0.054 nM
EC50 [3]: 2.9 nM
Maximum binding signal [3]: 106000
EC50 [4]: 2.3 nM
Maximum binding signal [4]: 180000

Second part, the binder after the results:

IC50(nM), cAMP in 293-human TSHR cells activated by Tab01 (30 nM) [6]: 0.28 nM
IC50(nM), cAMP in 293-human TSHR cells activated by Tab02 (6.5 nM) [6]: 0.15 nM
Inhibition rate (%), cAMP in 293-human TSHR cells activated by Tab01 (30 nM) [6]: 76.7%
Inhibition rate (%), cAMP in 293-human TSHR cells activated by Tab02 (6.5 nM) [6]: 86.2%
EC50 [7]: 3.71 nM
Maximum binding signal [7]: 396000
EC50 [3]: 2.16 nM
Maximum binding signal [3]: 117000
EC50 [4]: 2.14 nM
Maximum binding signal [4]: 193000
B2: humanized antibody cAb01-VH2-DA-VL2 (antibody, human IgG4 S228P, kappa, V domains shown)
VH: B5 VH with S49A, Y95F
VL: B5 VL with K44R, V57I
notes: Humanized from mAb001

IC50 (nM), cAMP in 293-human TSHR cells activated by Tab01 [2]: 4.18 nM
IC50 (nM), cAMP in 293-human TSHR cells activated by Tab02 [2]: 4.38 nM
Maximum inhibition rate (%), cAMP in 293-human TSHR cells activated by Tab01 [2]: 106%
Maximum inhibition rate (%), cAMP in 293-human TSHR cells activated by Tab02 [2]: 100%
EC50 [8]: 4.64 nM
Max_MFI [8]: 287000
EC50 [9]: 2.43 nM
Max_MFI [9]: 135000
EC50 [10]: 2.94 nM
Max_MFI [10]: 189000
Kd [5]: 121 nM
Response value (RU) [5]: 73.5 RU
B3: hAb01_G4P_V2 (antibody, human IgG4 S228P, kappa)
heavy: EVQLVESGGGLVKPGGSLRLSCAASGFTLSDYYIYWVRQAPGKGLEWVATISDAVIYTYYADSVKGRFTISRDNAKNSLYLQMNSLRAEDTAVYFCARAYGSSEVMDYWGQGTLVTVSSASTKGPSVFPLAPCSRSTSESTAALGCLVKDYFPEPVTVSWNSGALTSGVHTFPAVLQSSGLYSLSSVVTVPSSSLGTKTYTCNVDHKPSNTKVDKRVESKYGPPCPPCPAPEFEGGPSVFLFPPKPKDTLYITREPEVTCVVVDVSQEDPEVQFNWYVDGVEVHNAKTKPREEQFNSTYRVVSVLTVLHQDWLNGKEYKCKVSNKGLPSSIEKTISKAKGQPREPQVYTLPPSQEEMTKNQVSLTCLVKGFYPSDIAVEWESNGQPENNYKTTPPVLDSDGSFFLYSRLTVDKSRWQEGNVFSCSVMHEALHNHYTQKSLSLSLGK
light: B1 light
notes: also called hAb01_G4_V2

IC50 (nM), cAMP in 293-human TSHR cells activated by Tab01 [2]: 5.4 nM
IC50 (nM), cAMP in 293-human TSHR cells activated by Tab02 [2]: 2.04 nM
Maximum inhibition rate (%), cAMP in 293-human TSHR cells activated by Tab01 [2]: 94%
Maximum inhibition rate (%), cAMP in 293-human TSHR cells activated by Tab02 [2]: 91.1%
EC50 [8]: 4.4 nM
Max_MFI [8]: 371000
EC50 [9]: 2.75 nM
Max_MFI [9]: 178000
EC50 [10]: 2.77 nM
Max_MFI [10]: 244000
Kd [5]: 90 nM
Response value (RU) [5]: 94.5 RU
B4: hAb01_G1_V4 (antibody, human IgG1, kappa, L234A L235A)
heavy: EVQLVESGGGLVKPGGSLRLSCAASGFTLSDYYIYWVRQAPGKGLEWVATISDAVIYTYYADSVKGRFTISRDNAKNSLYLQMNSLRAEDTAVYFCARAYGSSEVMDYWGQGTLVTVSSASTKGPSVFPLAPSSKSTSGGTAALGCLVKDYFPEPVTVSWNSGALTSGVHTFPAVLQSSGLYSLSSVVTVPSSSLGTQTYICNVNHKPSNTKVDKKVEPKSCDKTHTCPPCPAPEAAGGPSVFLFPPKPKDTLYITREPEVTCVVVDVSHEDPEVKFNWYVDGVEVHNAKTKPREEQYNSTYRVVSVLTVLHQDWLNGKEYKCKVSNKALPAPIEKTISKAKGQPREPQVYTLPPSRDELTKNQVSLTCLVKGFYPSDIAVEWESNGQPENNYKTTPPVLDSDGSFFLYSKLTVDKSRWQQGNVFSCSVMHEALHNHYTQKSLSLSPGK
light: B1 light
